Data: patent US20150368357A1

Columns and labels:
[1] = target: HER2 (Human Epidermal Growth Factor Receptor 2) expressed on SK-BR-3 cells (human) (UniProt P04626); assay: flow cytometry, SK-BR-3 cells; mAb 50 ng/ml as headed
[2] = target: HER2 (Human Epidermal Growth Factor Receptor 2) expressed on SK-BR-3 cells (human) (UniProt P04626); assay: flow cytometry, SK-BR-3 cells; mAb 0.2 ng/ml as headed
[3] = target: HER2 (Human Epidermal Growth Factor Receptor 2) expressed on SK-BR-3 cells (human) (UniProt P04626); assay: flow cytometry, SK-BR-3 cells; mAb 0.4 ng/ml as headed

Work on “Anti-idiotypic FVIII (a chimeric anti-Factor VIII antibody produced by rat hybridoma YB2/0)” yielded an MFI [1] of 16 MFI, an MFI [2] of 0 MFI and an MFI [3] of 0 MFI.
